Experimental data as given in patent publication US20100184658A1 (published 2010).

How the values were obtained:
Test in all cases: cell-based or functional assay
[1] = molecular target: T1, SGK (SGK1) Serum/glucocorticoid regulated kinase (human (printed as (h)), UniProt O00141 60-431, limits assumed)
T1 sequence (looked up): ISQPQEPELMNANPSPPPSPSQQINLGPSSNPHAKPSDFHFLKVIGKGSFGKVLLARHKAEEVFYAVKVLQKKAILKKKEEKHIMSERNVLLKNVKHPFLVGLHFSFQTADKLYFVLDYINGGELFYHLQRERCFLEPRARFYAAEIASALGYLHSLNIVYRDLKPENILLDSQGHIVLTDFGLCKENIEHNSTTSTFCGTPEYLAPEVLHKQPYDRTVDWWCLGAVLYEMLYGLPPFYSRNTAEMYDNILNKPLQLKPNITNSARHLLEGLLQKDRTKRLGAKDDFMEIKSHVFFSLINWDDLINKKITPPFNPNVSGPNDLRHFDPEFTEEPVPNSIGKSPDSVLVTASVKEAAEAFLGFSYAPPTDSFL

PRKX = molecular target: T2, PRKX (UniProt P51817 1-358, limits assumed)
T2 sequence (looked up): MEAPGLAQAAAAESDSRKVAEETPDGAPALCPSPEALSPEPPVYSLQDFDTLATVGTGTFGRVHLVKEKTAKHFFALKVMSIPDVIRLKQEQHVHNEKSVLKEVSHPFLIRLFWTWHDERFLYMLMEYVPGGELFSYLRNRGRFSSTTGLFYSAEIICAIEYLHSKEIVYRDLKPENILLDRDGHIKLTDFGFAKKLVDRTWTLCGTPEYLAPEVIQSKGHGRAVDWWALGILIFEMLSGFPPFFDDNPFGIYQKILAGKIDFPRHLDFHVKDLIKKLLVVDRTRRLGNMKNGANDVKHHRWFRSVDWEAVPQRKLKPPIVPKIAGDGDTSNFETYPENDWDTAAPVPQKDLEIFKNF

[2] = molecular target: T3, CAMK4 (CaMKIV) Calcium/calmodulin-dependent protein kinase IV (UniProt Q16566 1-473, limits assumed)
T3 sequence (looked up): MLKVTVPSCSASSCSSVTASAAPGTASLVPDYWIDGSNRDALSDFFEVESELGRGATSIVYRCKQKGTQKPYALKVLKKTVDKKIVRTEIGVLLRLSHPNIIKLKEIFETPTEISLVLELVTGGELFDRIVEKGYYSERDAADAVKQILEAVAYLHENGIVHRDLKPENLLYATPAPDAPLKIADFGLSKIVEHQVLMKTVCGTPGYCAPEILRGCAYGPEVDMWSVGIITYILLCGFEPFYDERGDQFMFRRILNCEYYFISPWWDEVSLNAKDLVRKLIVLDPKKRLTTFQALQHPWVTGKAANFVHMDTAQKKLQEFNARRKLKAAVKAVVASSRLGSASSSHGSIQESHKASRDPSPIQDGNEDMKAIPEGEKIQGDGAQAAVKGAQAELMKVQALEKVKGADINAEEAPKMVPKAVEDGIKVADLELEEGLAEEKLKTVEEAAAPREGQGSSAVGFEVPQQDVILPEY

[3] = molecular target: NEK6 NIMA (never in mitosis gene a)-related kinase 6 (UniProt Q9HC98 1-313, limits assumed)
NEK6 NIMA (never in mitosis gene a)-related kinase 6, sequence (Q9HC98 whole entry): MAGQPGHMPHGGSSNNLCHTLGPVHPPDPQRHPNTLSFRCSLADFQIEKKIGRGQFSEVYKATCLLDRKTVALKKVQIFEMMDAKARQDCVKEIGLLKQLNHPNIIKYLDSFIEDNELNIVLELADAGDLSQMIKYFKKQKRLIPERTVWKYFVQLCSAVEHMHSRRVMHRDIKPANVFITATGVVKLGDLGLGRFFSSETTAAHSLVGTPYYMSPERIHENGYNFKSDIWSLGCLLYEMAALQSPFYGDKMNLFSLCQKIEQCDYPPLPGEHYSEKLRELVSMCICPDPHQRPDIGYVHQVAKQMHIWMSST

IRAK4 (interleukin-1 …) = molecular target: T4, IRAK4 (interleukin-1 receptor-associated kinase 4) (UniProt Q9NWZ3 1-460, limits assumed)
T4 sequence (looked up): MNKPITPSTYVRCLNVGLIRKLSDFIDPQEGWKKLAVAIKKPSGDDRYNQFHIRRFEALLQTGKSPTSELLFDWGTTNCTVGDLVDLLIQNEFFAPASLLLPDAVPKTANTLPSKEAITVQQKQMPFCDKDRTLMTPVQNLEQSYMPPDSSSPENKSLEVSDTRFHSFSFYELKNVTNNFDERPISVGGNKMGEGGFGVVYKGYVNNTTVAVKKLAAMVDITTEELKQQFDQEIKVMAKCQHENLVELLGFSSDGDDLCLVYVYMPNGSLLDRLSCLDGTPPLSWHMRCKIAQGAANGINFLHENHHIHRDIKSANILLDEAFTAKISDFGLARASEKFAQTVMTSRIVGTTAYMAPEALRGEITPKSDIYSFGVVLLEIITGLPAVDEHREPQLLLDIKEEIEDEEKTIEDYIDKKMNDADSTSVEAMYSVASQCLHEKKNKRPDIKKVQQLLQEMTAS

[4] = molecular target: MAPK10 (JNK3) Mitogen-activated protein kinase 10 (UniProt P53779 1-464, limits assumed)
MAPK10 (JNK3) Mitogen-activated protein kinase 10, sequence (P53779 whole entry): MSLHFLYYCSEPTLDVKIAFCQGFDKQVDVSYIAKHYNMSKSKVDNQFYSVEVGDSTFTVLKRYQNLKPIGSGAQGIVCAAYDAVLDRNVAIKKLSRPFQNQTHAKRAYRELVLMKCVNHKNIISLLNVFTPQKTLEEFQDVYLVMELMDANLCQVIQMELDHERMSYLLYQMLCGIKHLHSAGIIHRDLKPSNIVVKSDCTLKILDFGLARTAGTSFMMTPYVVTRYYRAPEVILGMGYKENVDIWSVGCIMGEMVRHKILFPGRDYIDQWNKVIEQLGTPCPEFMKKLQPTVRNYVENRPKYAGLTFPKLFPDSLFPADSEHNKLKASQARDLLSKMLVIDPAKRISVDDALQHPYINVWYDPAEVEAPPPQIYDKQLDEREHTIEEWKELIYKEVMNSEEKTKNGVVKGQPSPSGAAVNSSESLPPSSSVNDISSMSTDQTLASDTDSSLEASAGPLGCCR

CAMK2B (CaMKII beta) = CAMK2B (CaMKII beta) (UniProt Q13554 1-666, limits assumed)
CAMK2B (CaMKII beta), sequence (Q13554 whole entry): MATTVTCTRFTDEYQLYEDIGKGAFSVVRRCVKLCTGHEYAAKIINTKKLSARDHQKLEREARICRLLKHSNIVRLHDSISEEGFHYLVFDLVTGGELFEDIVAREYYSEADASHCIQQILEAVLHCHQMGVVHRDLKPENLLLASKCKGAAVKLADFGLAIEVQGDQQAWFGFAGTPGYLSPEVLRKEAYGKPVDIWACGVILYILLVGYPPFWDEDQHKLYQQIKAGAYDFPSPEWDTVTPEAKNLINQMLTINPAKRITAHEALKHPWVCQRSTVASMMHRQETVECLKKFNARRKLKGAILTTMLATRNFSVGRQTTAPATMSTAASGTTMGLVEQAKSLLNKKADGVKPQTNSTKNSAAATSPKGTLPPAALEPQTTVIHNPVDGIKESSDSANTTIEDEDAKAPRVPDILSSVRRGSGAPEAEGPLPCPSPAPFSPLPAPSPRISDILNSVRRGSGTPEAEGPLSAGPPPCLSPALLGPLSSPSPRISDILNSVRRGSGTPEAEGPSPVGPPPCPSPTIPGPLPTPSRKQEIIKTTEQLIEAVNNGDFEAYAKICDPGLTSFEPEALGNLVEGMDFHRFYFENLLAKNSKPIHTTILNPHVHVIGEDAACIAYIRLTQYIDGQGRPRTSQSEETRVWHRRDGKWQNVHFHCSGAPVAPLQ

[5] = molecular target: T5, CHEK1 (CHK1) CHK1 checkpoint homolog (UniProt O14757 1-476, limits assumed)
T5 sequence (looked up): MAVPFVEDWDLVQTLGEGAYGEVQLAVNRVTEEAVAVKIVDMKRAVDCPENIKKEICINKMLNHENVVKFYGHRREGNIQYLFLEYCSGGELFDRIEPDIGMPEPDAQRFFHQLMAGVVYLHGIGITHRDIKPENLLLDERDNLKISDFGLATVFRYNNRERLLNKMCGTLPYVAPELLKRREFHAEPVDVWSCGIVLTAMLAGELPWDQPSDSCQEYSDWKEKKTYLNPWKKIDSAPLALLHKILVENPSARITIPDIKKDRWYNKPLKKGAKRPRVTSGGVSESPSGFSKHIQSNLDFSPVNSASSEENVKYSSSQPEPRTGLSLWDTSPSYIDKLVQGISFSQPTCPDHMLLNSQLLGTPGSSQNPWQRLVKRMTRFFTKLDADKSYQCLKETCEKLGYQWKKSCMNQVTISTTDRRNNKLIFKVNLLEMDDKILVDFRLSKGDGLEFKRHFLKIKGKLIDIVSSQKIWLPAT

MAPKAPK3 = MAPKAPK3 (UniProt Q16644 1-382, limits assumed)
MAPKAPK3, sequence (Q16644 whole entry): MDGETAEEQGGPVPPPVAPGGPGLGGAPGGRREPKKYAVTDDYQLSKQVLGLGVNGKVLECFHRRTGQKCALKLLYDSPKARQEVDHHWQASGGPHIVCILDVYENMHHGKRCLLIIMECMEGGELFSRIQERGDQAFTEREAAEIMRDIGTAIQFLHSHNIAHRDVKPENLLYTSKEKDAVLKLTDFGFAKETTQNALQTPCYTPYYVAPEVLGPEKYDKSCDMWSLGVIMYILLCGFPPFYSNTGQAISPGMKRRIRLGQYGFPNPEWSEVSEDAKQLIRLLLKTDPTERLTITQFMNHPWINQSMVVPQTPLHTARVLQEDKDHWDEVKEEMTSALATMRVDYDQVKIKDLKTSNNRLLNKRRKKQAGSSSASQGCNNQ

[6] = molecular target: MAPKAPK2 Mitogen-activated protein kinase-activated protein kinase 2 (UniProt P49137 1-400, limits assumed)
MAPKAPK2 Mitogen-activated protein kinase-activated protein kinase 2, sequence (P49137 whole entry): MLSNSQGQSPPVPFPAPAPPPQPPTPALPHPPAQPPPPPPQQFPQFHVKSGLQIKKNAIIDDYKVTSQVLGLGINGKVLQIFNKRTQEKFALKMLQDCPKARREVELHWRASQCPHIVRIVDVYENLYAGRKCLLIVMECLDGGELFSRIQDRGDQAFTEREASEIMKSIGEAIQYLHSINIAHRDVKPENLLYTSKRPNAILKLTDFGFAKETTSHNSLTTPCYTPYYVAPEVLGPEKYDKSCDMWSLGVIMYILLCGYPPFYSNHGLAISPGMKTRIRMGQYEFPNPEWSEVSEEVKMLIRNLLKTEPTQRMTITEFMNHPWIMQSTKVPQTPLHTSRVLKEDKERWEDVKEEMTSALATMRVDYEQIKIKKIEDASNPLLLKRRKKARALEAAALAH
Further: test concentration or dose not given here.

SGRPPMIVWFNRPFLIAVSHTHGQTILFMAKVINPVGA [D3 peptide]
% Inhibition mean [1]: 100% | % Inhibition mean (PRKX): 100% | % Inhibition mean [2]: 99.6% | % Inhibition mean [3]: 97.4% | % Inhibition mean (IRAK4 (interleukin-1 …)): 96% | % Inhibition mean [4]: 90.7% | % Inhibition mean (CAMK2B (CaMKII beta)): 90.3% | % Inhibition mean [5]: 74% | % Inhibition mean (MAPKAPK3): 64.1% | % Inhibition mean [6]: 58%
